Data: paper PMC3315474
pKd: −log10 of the molar value.

System: HSF-3xFLAG (Heat Shock Factor) (Drosophila (species not stated))
Assay: EMSA
Conditions: Kd per HSF trimer, 20 mM HEPES pH 7.9, 100 mM NaCl, 3 mM MgCl2, 1 mM EDTA, 4 mM DTT, 10% glycerol, 0.1% NP-40, 300 ug/ml BSA, 10 ul, 200 amol probe, 30 min, room temperature

Row | Substance | pKd | further results
1 | HSE chr3L:4073542 (97.5 pM) | 10.01 | 
2 | HSE chr2R:3529792 (308 pM) | 9.51 | 
3 | HSE chr2L:5009892 (42.6 pM) |  | pKd (Methods print 42.7 pM): 10.37
4 | HSE chrX:3380775 (224 pM) | 9.65 | 
5 | HSE chr3L:13470978 (221 pM) |  | pKd (HSF up to 1.5 nM monomer): 9.66
